From publication PMC2779898

What was measured:
Test in all cases: EMSA
PF1488 = target: T1, PF1488 (Pyrococcus furiosus, UniProt Q8U0U4 1-222)
T1 sequence: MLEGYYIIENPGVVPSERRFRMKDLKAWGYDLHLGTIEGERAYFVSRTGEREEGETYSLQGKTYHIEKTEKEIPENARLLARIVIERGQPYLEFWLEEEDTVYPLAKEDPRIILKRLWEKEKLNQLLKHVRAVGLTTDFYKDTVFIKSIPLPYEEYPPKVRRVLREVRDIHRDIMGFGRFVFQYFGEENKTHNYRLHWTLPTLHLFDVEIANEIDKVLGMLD

PF0547 = target: T2, PF0547 (Pyrococcus furiosus, UniProt Q8U3C3 1-448)
T2 sequence: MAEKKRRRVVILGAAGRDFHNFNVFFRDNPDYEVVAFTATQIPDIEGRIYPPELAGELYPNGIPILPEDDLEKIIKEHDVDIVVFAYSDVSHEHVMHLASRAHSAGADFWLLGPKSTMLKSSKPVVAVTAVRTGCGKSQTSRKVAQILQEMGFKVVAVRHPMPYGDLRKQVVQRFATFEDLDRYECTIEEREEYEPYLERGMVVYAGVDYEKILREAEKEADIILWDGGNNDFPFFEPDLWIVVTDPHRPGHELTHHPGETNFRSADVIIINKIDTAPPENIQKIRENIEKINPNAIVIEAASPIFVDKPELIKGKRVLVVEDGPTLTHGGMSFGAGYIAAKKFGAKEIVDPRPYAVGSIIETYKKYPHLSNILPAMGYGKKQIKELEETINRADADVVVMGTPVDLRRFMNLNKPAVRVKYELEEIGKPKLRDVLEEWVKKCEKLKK

PF1142 = target: T3, PF1142 (Pyrococcus furiosus, UniProt Q8U1R3 1-280)
T3 sequence: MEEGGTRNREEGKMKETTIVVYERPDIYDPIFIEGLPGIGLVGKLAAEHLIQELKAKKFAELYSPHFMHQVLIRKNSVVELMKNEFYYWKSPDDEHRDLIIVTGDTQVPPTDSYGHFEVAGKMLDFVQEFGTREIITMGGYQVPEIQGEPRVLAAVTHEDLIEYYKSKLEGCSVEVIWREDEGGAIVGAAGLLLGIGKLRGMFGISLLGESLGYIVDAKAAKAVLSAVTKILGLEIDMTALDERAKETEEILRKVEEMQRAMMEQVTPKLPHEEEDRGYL

PF1913 = target: T4, PF1913 (Pyrococcus furiosus, UniProt Q8TZS1 1-157)
T4 sequence: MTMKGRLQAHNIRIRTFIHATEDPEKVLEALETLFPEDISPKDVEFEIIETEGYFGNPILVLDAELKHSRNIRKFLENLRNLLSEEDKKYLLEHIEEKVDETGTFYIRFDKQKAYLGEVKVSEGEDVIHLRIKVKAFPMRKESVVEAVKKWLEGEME

Measured: binding result

GAAACAAGGAGAAAUGGUUCGUGUCCU (structured_RNA) [MPOR-27]
no binding: all assays above
